Measurements reported in patent WO2017046774A2 (dated 2017).

Tests used:
[1] = target: T1, human MCAM C272A mutant (shotgun mutagenesis library clone, on cells) (human, UniProt P43121 24-646); experiment: shotgun mutagenesis library, immunodetection on BHK cells, normalized to wild type MCAM
T1 construct: Expressed in BHK cells, immunodetection
T1 chain: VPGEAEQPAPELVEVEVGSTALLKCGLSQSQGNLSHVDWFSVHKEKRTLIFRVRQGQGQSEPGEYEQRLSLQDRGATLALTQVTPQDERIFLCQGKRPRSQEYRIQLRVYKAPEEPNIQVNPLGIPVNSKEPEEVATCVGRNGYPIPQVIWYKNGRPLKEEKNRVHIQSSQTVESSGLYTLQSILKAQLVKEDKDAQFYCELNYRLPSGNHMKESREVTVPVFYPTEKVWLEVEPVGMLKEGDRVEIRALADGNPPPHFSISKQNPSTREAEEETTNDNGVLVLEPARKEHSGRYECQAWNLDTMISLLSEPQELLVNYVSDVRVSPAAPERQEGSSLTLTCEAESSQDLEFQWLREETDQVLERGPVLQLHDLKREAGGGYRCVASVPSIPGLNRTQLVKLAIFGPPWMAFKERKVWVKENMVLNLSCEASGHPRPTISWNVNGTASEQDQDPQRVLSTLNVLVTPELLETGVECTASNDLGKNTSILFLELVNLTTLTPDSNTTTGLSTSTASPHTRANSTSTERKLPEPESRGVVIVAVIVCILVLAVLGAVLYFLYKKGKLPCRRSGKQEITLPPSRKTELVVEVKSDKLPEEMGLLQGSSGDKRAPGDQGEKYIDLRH

recombinant laminin 511 = target: T2, recombinant laminin 511 (UniProt O15230 36-3695; P07942 22-1786; P11047 34-1609); experiment: flow cytometry on CHO cells transfected with human MCAM, pan-laminin antibody
T2 construct: also called laminin 10 (α5β1γ1)

B1: mouse anti-human MCAM monoclonal antibody clone 1749.1.3 (antibody, V domains shown)
VH: DVKLVESGGDLVKPGGSLKLSCAASGFTFSSYIMSWVRQTPEKRLEWVATISSGGSSTYYPDSVKGRFTISRDNAKNTLYLQMSSLKSEDTAMYYCTRDDDYDVKVFAYWGQGTLVTVSA
VL: DIVMSQSPSSLAVSAGEKVTMNCKSSRSLLNSRIRKNYLAWYQQKPGQSPKLLIYWASTRESGVPDRFTGSGSGTDFTLTISSVQAEDLAVYYCKQSYNLLTFGAGTKLELK
notes: Mouse hybridoma monoclonal antibody; also called m1749
[1]
  mean monoclonal antibody reactivity (% WT): < 30 % WT

B2: human MCAM (full length, expressed on the surface of transfected cells) (receptor)
chain: VPGEAEQPAPELVEVEVGSTALLKCGLSQSQGNLSHVDWFSVHKEKRTLIFRVRQGQGQSEPGEYEQRLSLQDRGATLALTQVTPQDERIFLCQGKRPRSQEYRIQLRVYKAPEEPNIQVNPLGIPVNSKEPEEVATCVGRNGYPIPQVIWYKNGRPLKEEKNRVHIQSSQTVESSGLYTLQSILKAQLVKEDKDAQFYCELNYRLPSGNHMKESREVTVPVFYPTEKVWLEVEPVGMLKEGDRVEIRCLADGNPPPHFSISKQNPSTREAEEETTNDNGVLVLEPARKEHSGRYECQAWNLDTMISLLSEPQELLVNYVSDVRVSPAAPERQEGSSLTLTCEAESSQDLEFQWLREETDQVLERGPVLQLHDLKREAGGGYRCVASVPSIPGLNRTQLVKLAIFGPPWMAFKERKVWVKENMVLNLSCEASGHPRPTISWNVNGTASEQDQDPQRVLSTLNVLVTPELLETGVECTASNDLGKNTSILFLELVNLTTLTPDSNTTTGLSTSTASPHTRANSTSTERKLPEPESRGVVIVAVIVCILVLAVLGAVLYFLYKKGKLPCRRSGKQEITLPPSRKTELVVEVKSDKLPEEMGLLQGSSGDKRAPGDQGEKYIDLRH
notes: also called CD146; MUC18
Recombinant laminin 511
  binding result: no binding (tested: 10 μg/ml)
